Among the data in article PMC10840515 are IC50 values, retold here.

The target of assay [1] is HLA-DR1 (HLA-DRA*0101, HLA-DRB1*0101) (human). Briefly: FP.
The target is the same in assay [2]. Briefly: ELISA.
For assay [3] the target is unchanged. Briefly: ELISA. The source holds these as a separate data set.

Broadly, the IC50 is the concentration needed to halve the response being measured. Read a high IC50 as weaker potency.

Take N224-238: the 50% inhibitory concentration (IC50) in assay [1] worked out at 2770 nM.

The substance nsp12 5019-5033 gave an IC50 in assay [1] of 2890 nM.

In turn, S339-353 returned a 50% inhibitory concentration (IC50) in assay [1] of 5990 nM.

In assay [2], SARS-CoV-2 Spike peptide S511-530 had an IC50 of 2620 nM.

SARS-CoV-2 Spike peptide S512-526: the half-inhibitory concentration (IC50) in assay [2] was determined as 662 nM.

In the case of “SARS-CoV-2 orf1ab (nsp3) peptide nsp3 1350-1364”, the IC50 in assay [2] is 140 nM.

S990-1004 returned an IC50 in assay [1] greater than 10000 nM.

In assay [1], nsp6 3801-3815 registered a concentration for half-maximal inhibition (IC50) of 1520 nM.

On to S818-832, for which the IC50 in assay [1] is greater than 10000 nM.

Take SARS-CoV-2 Spike peptide S167-181: in assay [2], the IC50 was greater than 10000 nM.

As to S1015-1029, the 50% inhibitory concentration (IC50) in assay [1] turned out to be 7390 nM.

For the substance “SARS-CoV-2 Spike peptide S486-505 (Wuhan HU-1)”, the values for the concentration for half-maximal inhibition (IC50) in assay [3] and in assay [2] were 1950 nM and 3050 nM, respectively.

S344-358: in assay [1], the half-maximal inhibitory concentration (IC50) is greater than 10000 nM.

Turning to SARS-CoV-2 Spike peptide S866-880, the IC50 in assay [2] was 1150 nM.

ORF8 43-57: the IC50 in assay [1] turned out to be 430 nM.

N328-342 displayed an IC50 in assay [1] of 4010 nM.

For E56-70, in assay [1], the IC50 was greater than 10000 nM.

Take N127-141: in assay [1], the IC50 was greater than 10000 nM.

On to S235-249, for which the IC50 in assay [1] amounted to 8130 nM.

In assay [1], N108-122 came in with a half-maximal inhibitory concentration (IC50) greater than 10000 nM.

With N49-63, the concentration for half-maximal inhibition (IC50) in assay [1] was 493 nM.

For “SARS-CoV-2 orf1ab (nsp14) peptide nsp14 6420-6434”, the IC50 in assay [2] was 541 nM.
